In PMC7515732 (Nucleic Acids Research, 2020) one finds binding result and Kd data, which are given here for eight molecules.

One data set deals with T1, HsRARA DBD (82–167) (human, UniProt P10276 82-167).
T1 sequence (looked up): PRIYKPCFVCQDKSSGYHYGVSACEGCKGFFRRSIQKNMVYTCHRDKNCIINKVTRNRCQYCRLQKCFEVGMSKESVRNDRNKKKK
Put plainly: crystal structure.

In another data set the target is T2, RXRA ΔAB;RARA ΔABF (Mus musculus;Mus musculus, UniProt P28700;P11416 135-467;84-421, |).
T2 sequence 1: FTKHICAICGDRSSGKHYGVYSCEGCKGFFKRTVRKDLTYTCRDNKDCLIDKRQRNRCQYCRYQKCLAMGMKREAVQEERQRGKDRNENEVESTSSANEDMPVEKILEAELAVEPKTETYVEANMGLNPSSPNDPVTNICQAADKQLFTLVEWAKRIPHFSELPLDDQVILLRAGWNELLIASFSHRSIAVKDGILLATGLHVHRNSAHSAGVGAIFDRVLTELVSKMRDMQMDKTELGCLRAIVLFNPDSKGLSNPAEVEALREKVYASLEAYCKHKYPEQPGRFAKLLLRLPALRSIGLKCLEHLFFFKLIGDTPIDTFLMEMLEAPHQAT
T2 sequence 2: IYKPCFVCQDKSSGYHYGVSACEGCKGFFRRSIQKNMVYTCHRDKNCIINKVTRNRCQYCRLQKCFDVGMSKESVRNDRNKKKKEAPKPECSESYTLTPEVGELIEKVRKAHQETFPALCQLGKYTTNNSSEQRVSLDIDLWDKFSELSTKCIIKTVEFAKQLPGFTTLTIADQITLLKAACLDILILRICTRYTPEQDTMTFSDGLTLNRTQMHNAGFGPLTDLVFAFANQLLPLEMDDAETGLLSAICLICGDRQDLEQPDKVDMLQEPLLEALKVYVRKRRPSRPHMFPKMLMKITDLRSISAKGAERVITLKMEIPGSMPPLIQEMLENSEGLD
Nature of the data set: SEC-SAXS/RALLS. On the technique in general: In gel filtration, larger molecules generally elute earlier.

Data set [1] addresses T3, RXRA ΔAB;RARA ΔAB (Mus musculus;Mus musculus, UniProt P28700;P11416 135-467;84-462, |).
T3 sequence 1: T2 sequence 1
T3 sequence 2: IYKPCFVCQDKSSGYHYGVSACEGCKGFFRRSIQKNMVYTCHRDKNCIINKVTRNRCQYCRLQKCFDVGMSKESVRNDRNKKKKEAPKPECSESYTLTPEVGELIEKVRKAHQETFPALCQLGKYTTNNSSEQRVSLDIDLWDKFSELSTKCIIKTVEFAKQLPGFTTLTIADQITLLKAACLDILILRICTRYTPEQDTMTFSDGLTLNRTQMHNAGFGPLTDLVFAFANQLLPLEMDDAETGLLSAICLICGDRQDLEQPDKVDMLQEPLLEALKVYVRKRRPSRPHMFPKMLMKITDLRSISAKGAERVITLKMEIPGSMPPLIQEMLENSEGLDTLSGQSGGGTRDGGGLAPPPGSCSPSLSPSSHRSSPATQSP
Put plainly: HDX-MS.

Data set [2] concerns the target T3, RXRA ΔAB;RARA ΔAB. Put plainly: FRET titration.
The target of another data set is RXRA DBD;RARA DBD (Homo sapiens;Homo sapiens, UniProt P19793;P10276 130-212;82-167, |). Nature of the data set: X-ray crystallography.
Another data set addresses RXRA DBD (Homo sapiens, UniProt P19793 130-212). Put plainly: X-ray crystallography.

B1: HsRXRA DBD (130–212) (domain or fragment, human, UniProt P19793 130-212, looked up)
chain: FTKHICAICGDRSSGKHYGVYSCEGCKGFFKRTVRKDLTYTCRDNKDCLIDKRQRNRCQYCRYQKCLAMGMKREAVQEERQRG
As for B1, the binding result with HsRARA DBD (82–167) was “binds”.

B2: F11r DR5 (dsDNA)
DNA 1: AGGGGTCAAGCCAGGTTCACT
DNA 2: AGTGAACCTGGCTTGACCCCT
With B2, the binding result with RXRA ΔAB;RARA ΔABF is “binds”.

B3: Hoxb13 DR0 unlabelled (SAXS, HDX) (dsDNA)
DNA 1: GAAGGTCAAGGCCAAG
DNA 2: CTTGGCCTTGACCTTC
Regarding B3, the binding result in the data set with RXRA ΔAB;RARA ΔABF and in the data set with RXRA ΔAB;RARA ΔAB [1] was “binds” each time.

B4: Socs3 DR0 (dsDNA)
DNA 1: AGGGGTCAAGGTCAAA
DNA 2: TTTGACCTTGACCCCT
Usually Kd stands for the constant that tells how readily two partners part at equilibrium. In turn, B4 gave a Kd in the data set with RXRA ΔAB;RARA ΔAB [2] of 2700 nM.

B5: Rarb2 DR5 TAMRA (dsDNA)
DNA 1: AGGGTTCACCGAAAGTTCACT
DNA 2: AGTGAACTTTCGGTGAACCCT
With B5, the Kd in the data set with RXRA ΔAB;RARA ΔAB [2] was determined as 800 nM.

B6: Rarb2 DR5 (crystal) (dsDNA)
DNA 1: AGGGTTCACCGAAAGTTCACT
DNA 2: AGTGAACTTTCGGTGAACCCT
For the molecule B6, in the data set with RXRA DBD;RARA DBD, the binding result is on record as “binds”.

B7: Ramp2 DR1 (dsDNA)
DNA 1: TGAGTTCAAGGGTCAAT
DNA 2: ATTGACCCTTGAACTCA
In the case of B7, the Kd in the data set with RXRA ΔAB;RARA ΔAB [2] worked out at 500 nM.

B8: Hoxb13 DR0 (crystal) (dsDNA)
DNA 1: GAAGGTCAAGGCCAAG
DNA 2: CTTGGCCTTGACCTTC
As for B8, the binding result with RXRA DBD was “binds”.
